“And” between values parts separate entries of the source, which are not always exact repeats. Equal entries are not always repeated.
How the values were obtained:
[1] = biological target: LHCII, the major light-harvesting pigment-protein complex of Photosystem II (Spinacia oleracea (endogenous in spinach leaves)); assay: fluorescence correlation spectroscopy; mixture of LHCII trimers and monomers in 0.1% DM, illuminated with blue light of 100 µmol photons m^-2 s^-1 for 30 min, diluted to 3 nM; the form is assigned by its diffusion coefficient against monomer and trimer standards
[2] = biological target: LHCII, the major light-harvesting pigment-protein complex of Photosystem II (Spinacia oleracea (endogenous in spinach leaves)); assay: native gel or EMSA; non-denaturing gel electrophoresis of LHCII from dark-adapted leaves in 0.1% DM under constant illumination from sample loading, each slot at a different light intensity (11-1240 µmol photons m^-2 s^-1); 4 °C
[3] = biological target: LHCII, the major light-harvesting pigment-protein complex of Photosystem II (Spinacia oleracea (endogenous in spinach leaves)); assay: native gel or EMSA; lipid-LHCII samples enriched with exogenously added zeaxanthin, separated by native electrophoresis; dimer bands cut out for spectroscopy
[4] = biological target: LHCII, the major light-harvesting pigment-protein complex of Photosystem II (Spinacia oleracea (endogenous in spinach leaves)); assay: native gel or EMSA; non-denaturing gel electrophoresis of LHCII isolated from dark-adapted spinach leaves, suspended in 0.1% DM; 3% stacking and 8% separating gel, 4 °C, running buffer 96 mM glycine, 12.5 mM Tris, 0.05% LDS
[5] = biological target: LHCII, the major light-harvesting pigment-protein complex of Photosystem II (Spinacia oleracea (endogenous in spinach leaves)); assay: native gel or EMSA; identical experiment with thylakoid membranes from dark-adapted spinach leaves solubilised in 0.1% DM, electrophoresis under illumination of increasing intensity (Fig. S4)
[6] = biological target: LHCII, the major light-harvesting pigment-protein complex of Photosystem II (Spinacia oleracea (endogenous in spinach leaves)); assay: native gel or EMSA; non-denaturing gel electrophoresis of LHCII-HL, isolated from spinach leaves pre-illuminated with 1200 µmol photons m^-2 s^-1, suspended in 0.1% DM; 4 °C, running buffer 96 mM glycine, 12.5 mM Tris, 0.05% LDS

stoichiometry N [1]: 2
stoichiometry N [2]: 3 and 2
stoichiometry N [3]: 2
stoichiometry N [4]: 3
trimer/monomer ratio [4]: 2.82
stoichiometry N [5]: 3 and 2
stoichiometry N [6]: 3 and 2
trimer/monomer ratio [6]: 0.71
Substance: LHCII, the major light-harvesting pigment-protein complex of Photosystem II (natural protein)
